According to US20060257397A1 (CRUCELL HOLLAND B V, published 2006):

Legend:
CD83 = biological target: T1, CD83 (UniProt Q01151 20-205, limits assumed); test: flow cytometry, phage antibody on transfected A431 cells
T1 construct: whole, on cells; also called A431 cell line transfected with CD83
T1 sequence (looked up): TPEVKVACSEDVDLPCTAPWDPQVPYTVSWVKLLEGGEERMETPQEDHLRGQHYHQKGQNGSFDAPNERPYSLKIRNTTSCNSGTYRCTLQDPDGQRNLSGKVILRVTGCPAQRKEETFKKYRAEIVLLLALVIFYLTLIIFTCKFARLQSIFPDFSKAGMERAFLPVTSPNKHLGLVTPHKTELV
Experimental: (§1) In total, three selection rounds were performed and after both the second and third round, phage antibodies were tested for specific binding on a variety of cell-types, i.e., cultured DCs, PBLs, tonsil and synovial fluid cell suspensions, several cell lines including K562, U266, IM9, U937, THP, CEM, Fravel, HL60, Raji, RPMI8226, HepgII, HELA, HT29 and Jurkatt, a C1R cell line transfected with the molecule CD1a, and A431 cell lines transfected with the molecules CD80, CD83, and CD86. For staining of cells, 100 μl of the phage antibodies were blocked by adding 50 μl of PBS containing 4% milk powder for 15 minutes at room temperature. Next, 5×10⁵ cells in 50 μl of PBS containing 1% BSA were added to the blocked phage antibodies and the mixture obtained was incubated on ice for one hour. After that, the obtained mixture was washed three times with 200 μl PBS containing 1% BSA. To detect cell-bound phage antibodies, the cells were incubated with 20 μl of a 1:800 dilution of sheep anti-M13 polyclonal antibody for 20 minutes on ice. Thereafter, the cells were washed with PBS containing 1% BSA and incubated with 20 μl of a 1:700 dilution of PE-conjugated donkey anti-sheep polyclonal antibody for 20 minutes on ice.
(§2) To visualize DCs the cells were washed again with PBS containing 1% BSA, stained with 10 μl 1:10 diluted FITC-conjugated anti-CD1a antibody (BD PharMingen) and suspended in 200 μl of PBS containing 1% BSA. Flow cytometric analyses were performed using a FACScan (Becton Dickinson).
(§3) The twenty scFv phage antibodies derived from the selections described above bound exclusively to the cell line transfected with CD1a (see lower right panel of FIG. 2 for binding of the representative scFv phage antibody called SC02-113 to the CD1a-transfected cell line). […]

CD80 = biological target: T2, CD80 (UniProt P33681 35-288, limits assumed); test: as above
T2 construct: whole, on cells; also called A431 cell line transfected with CD80
T2 sequence (looked up): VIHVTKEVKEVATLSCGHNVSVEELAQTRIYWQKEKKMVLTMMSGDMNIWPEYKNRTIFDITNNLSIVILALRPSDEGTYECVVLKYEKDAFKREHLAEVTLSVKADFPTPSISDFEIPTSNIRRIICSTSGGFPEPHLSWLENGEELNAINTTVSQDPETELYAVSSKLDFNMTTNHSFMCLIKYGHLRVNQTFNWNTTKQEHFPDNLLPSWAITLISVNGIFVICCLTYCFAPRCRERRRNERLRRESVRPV
Experimental: as §1, §2, §3

CD86 = biological target: T3, CD86 (UniProt P42081 24-329, limits assumed); test: as above
T3 construct: whole, on cells; also called A431 cell line transfected with CD86
T3 sequence (looked up): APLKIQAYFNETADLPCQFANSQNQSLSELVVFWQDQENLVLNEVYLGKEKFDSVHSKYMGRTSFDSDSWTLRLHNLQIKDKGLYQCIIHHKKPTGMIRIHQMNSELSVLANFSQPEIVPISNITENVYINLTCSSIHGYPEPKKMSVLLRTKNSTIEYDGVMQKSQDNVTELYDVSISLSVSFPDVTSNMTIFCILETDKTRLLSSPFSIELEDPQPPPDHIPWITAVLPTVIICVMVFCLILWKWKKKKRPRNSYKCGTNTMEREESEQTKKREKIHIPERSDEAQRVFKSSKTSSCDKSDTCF
Experimental: as §1, §2, §3

human CD1a = biological target: T4, human CD1a (human, UniProt P06126 17-327); test: flow cytometry, phage antibody on C1R cells transfected with CD1a
T4 construct: whole, on cells; also called C1R-CD1a; CR1-CD1a
Experimental: In total, three selection rounds were performed and after both the second and third round, phage antibodies were tested for specific binding on a variety of cell-types, i.e., cultured DCs, PBLs, tonsil and synovial fluid cell suspensions, several cell lines including K562, U266, IM9, U937, THP, CEM, Fravel, HL60, Raji, RPMI8226, HepgII, HELA, HT29 and Jurkatt, a C1R cell line transfected with the molecule CD1a, and A431 cell lines transfected with the molecules CD80, CD83, and CD86. For staining of cells, 100 μl of the phage antibodies were blocked by adding 50 μl of PBS containing 4% milk powder for 15 minutes at room temperature. Next, 5×10⁵ cells in 50 μl of PBS containing 1% BSA were added to the blocked phage antibodies and the mixture obtained was incubated on ice for one hour. After that, the obtained mixture was washed three times with 200 μl PBS containing 1% BSA. To detect cell-bound phage antibodies, the cells were incubated with 20 μl of a 1:800 dilution of sheep anti-M13 polyclonal antibody for 20 minutes on ice. Thereafter, the cells were washed with PBS containing 1% BSA and incubated with 20 μl of a 1:700 dilution of PE-conjugated donkey anti-sheep polyclonal antibody for 20 minutes on ice. […]

T4 sequence (P06126 17-327): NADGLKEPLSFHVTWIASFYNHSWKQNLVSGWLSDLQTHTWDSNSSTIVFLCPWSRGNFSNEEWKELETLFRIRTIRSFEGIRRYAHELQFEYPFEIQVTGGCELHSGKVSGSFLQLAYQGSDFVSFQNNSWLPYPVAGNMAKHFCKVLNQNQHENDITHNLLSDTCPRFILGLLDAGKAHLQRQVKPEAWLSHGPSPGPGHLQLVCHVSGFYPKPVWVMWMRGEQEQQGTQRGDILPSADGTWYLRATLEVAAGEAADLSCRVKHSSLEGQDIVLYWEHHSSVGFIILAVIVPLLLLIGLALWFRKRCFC

B1: scFv phage antibody SC02-115 (scFv)
scFv: QVQLVQSGAEAKKPGASVKVSCKASGYTFTGYYMHWVRQAPGQGLEWMGWISAYNGNTNYAQKLQGRVTMTTDTSTSTAYMELRSLRSDDTAVYYCARSQMPSYFDYWGQGTLVTVSRGGGGSGGGGSGGGGSSELTQDPAVSVALGQTVRITCQGDSLRSYYASWYQQKPGQAPVLVIYGKNNRPSGIPDRFSGSSSGNTASLTITGAQAEDEADYYCNSRDSSGNHVVFGGGTKLTVLG
binding result (CD83): no binding | binding result (CD80): no binding | binding result (CD86): no binding | binding result (human CD1a): binds
